Test system: MS2 coat protein
Test: apparent KD of MS2 coat protein; designed switch direction (-1 OFF switch, 1 ON switch): 1; higher = weaker reporter binding
How it was run: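 SNAP-549-labelled MS2 coat protein was titrated, doubling from 0.7 or 1.5 nM to 3 µM, over designed RNA switches transcribed on Illumina chips by stalled E. coli RNA polymerase. Runs were done without input, with 200 uM small-molecule ligand, or with an oligonucleotide input. Apparent KD is the per-design median over clusters of curve-fitted normalised fluorescence.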

[1] = input ligand: microRNA oligo, concentration not stated
[2] = Eterna round: R95, input ligand: FMN 200 uM
[3] = Eterna round: R95, input ligand: microRNA oligo, concentration not stated
[4] = Eterna round: R95, input ligand: none

Row | Sequence | apparent KD of MS2 coat protein (input ligand: FMN 200 uM) [nM] | apparent KD of MS2 coat protein [1] [nM] | apparent KD of MS2 coat protein (input ligand: none) [nM] | apparent KD of MS2 coat protein [2] [nM] | apparent KD of MS2 coat protein [3] [nM] | apparent KD of MS2 coat protein [4] [nM]
1 | CGCCCGAAUGAAGGAUAUGGUACAACACGAUGAUCAGAAGGUUAUUAAAGUGGGUGAUGCCGACAUGAGGAUCACCCAUGUUGG [Eternabot solution 40] (Eterna round: R96, puzzle: Same State NG 1) | 53.1 | 60 | 66.9 | – | – | –
2 | AAGUAACAUGAGGAUCACCCAUGUGAGGUGAGCGUAGGAUAUCGAGGAGGAAGGGUGGAGCGAGAAGGACGAGAAG [JR_SS1_Sub097] (puzzle: Same State 1) | – | – | – | 114 | 262 | 402
3 | UAUUAAUCUGUAGGAUAUCUAGGAUAUGGACGAGGAUCACCCGAGCAGCAUCAGCGCACCAGAGGAGAGAAGGACGCUUUGGUG [pwkr ssNG2 2F5 2FMN.2] (Eterna round: R96, puzzle: Same State NG 2) | 325 | 208 | 367 | – | – | –
4 | GUCCAAAACACAGGAUAUCCCAGUCAUGAACUGGGAGAAGGGUGGCCACAUGAGGAUCACCCAUGUGAAGUGCGAGAGGCACGA [Arquarais] (Eterna round: R96, puzzle: Same State NG 1) | 253 | 595 | 937 | – | – | –
5 | AACAAUCUAUCUGAGGAUAUCAUGUAAUAAACAUGAGGAUCACCCAUGUGCAGGAAAACUGCAUAUGAGAAGGCAGAUAGAUUGA [salish99_ss2_r3_030] (puzzle: Same State 2) | – | – | – | 182 | 134 | 180
6 | GCCGCAAGGGCAGGAUAUGGGUCCAGAGUGCAAAUACACUCUGGUACAUGAGGAUCACCCAUGUCCCAGAAGGGCCCAAGCGGC [Teerledion] (Eterna round: R96, puzzle: Same State NG 2) | 13.9 | 71 | 127 | – | – | –
7 | GCUCGGACGAUGACCCACAUGAGGAUCACCCAUGUGCGUGGGCAGGAUAUCUAGAUUAAGGAUGUAGAGAAGGGUCGACCGAGC [SameState NG3 #30] (Eterna round: R96, puzzle: Same State NG 3) | 415 | 58.4 | 386 | – | – | –
8 | AUAAGUUCGAUGCUCGUCUUUCCGUACAAACAUGAGGAUCACCCAUGUGAUCGGGAAGUAGCCCGAUCAGUAUGGCC [Leceen] (puzzle: Sensor for hsa-mir-208a) | – | – | – | 30.6 | 16.3 | 27.5
9 | ACAAGACAUGAGGAUCACCCAUGUAUAAAUUACACAGGAUAUCGGCGGACCGCACCCGCACGAGAAGGGUGACUUC [Eszaleer] (puzzle: Same State 1) | – | – | – | 472 | 34.1 | 24.7
10 | GCUAGUAAAAUUGCUAACAUGAGGAUCACCCAUGUAUGUUGGCAGGAUAUCGUUUGCAAAGCAAACGAGAAGGGCUAAACUAGC [Mat - Same State NG 3 - JL Mod - D15] (Eterna round: R96, puzzle: Same State NG 3) | 30.2 | 47.5 | 86.8 | – | – | –
11 | GGAGAACAUGAGGAUCACCCAUGUGAGAGGGAUGUAGGAUAUGUGAGGAGUAAAGGAGGGACAGAAGGACAGAGAU [JR_SS!_Sub068] (Eterna round: R96, puzzle: Same State 1) | – | 30.4 | – | – | – | –
12 | UGAAUAUUUACAGGAUAUGAGUUGUAUAGUGGAUCAGAAGGGUGGGUGUUUUGCACGGUGUGUUACAUGAGGAUCACCCAUGUU [SameState NG1 #26] (Eterna round: R96, puzzle: Same State NG 1) | 412 | 206 | 196 | – | – | –
13 | GUAAUCGUUAUAGGAUAUCAUGAGGAUUACCCAUGAGAAGGGUGAUCUCGAUCCAUAUUCAGAAAAUGAAUGUGGAUAGAUUGC [Omei NG1 A v2] (Eterna round: R96, puzzle: Same State NG 1) | 1010 | 292 | 1150 | – | – | –
14 | GACCGCGAGGAAGGAUAUGGAGCCUUAUUGGCUCCAGAAGGUCCAUAAAGGACAUGAGGAUCACCCAUGUGGGUUGAAGCGGUC [Fiskers NG1ss - 38] (Eterna round: R96, puzzle: Same State NG 1) | 24.6 | 125 | 173 | – | – | –
15 | GCGAAAGCGGUAGGAUAUCUAGGAUAUGGGAAGACCUAAGGUUGGAAGUCACUUCACCCAGAAGGAGAGAAGGACACCGAAAGG [pwkr ssNG2 2FMN + F9.2] (Eterna round: R96, puzzle: Same State NG 2) | 36.6 | 113 | 134 | – | – | –
16 | GUUACAUGAGGAUCACCCAUGUAUGUGUGGGAGUAAGUGUCUUAGGAUAUCUGUUAUUUAGUUUAAGAGAAGGAAGAUUGUUGU [JMF's solution 41] (Eterna round: R96, puzzle: Same State NG 3) | 124 | 80.9 | 97.4 | – | – | –

Row | Sequence | apparent KD of MS2 coat protein (input ligand: FMN 200 uM) [nM] | apparent KD of MS2 coat protein [1] [nM] | apparent KD of MS2 coat protein (input ligand: none) [nM] | apparent KD of MS2 coat protein [2] [nM] | apparent KD of MS2 coat protein [3] [nM] | apparent KD of MS2 coat protein [4] [nM]
17 | UGUUGUAUUACAGGAUAUCUAGUAUUAUUAUUUAGAGAAGGGUAUUCACAUGAGGAUCACCCAUGUAUAUACGAGGAAGUUGUG [JMF's solution 39] (Eterna round: R96, puzzle: Same State NG 1) | – | 28.2 | – | – | – | –
18 | UCUUGGUUUUUGCUCGUUUUUUGUGUUGAACAUGAGGAUCACCCAUGUAUUGUACAAUCCAGUUUAAUAAUGGUCCA [Mod of one of JR's submissions 2] (puzzle: Sensor for hsa-mir-208a) | – | – | – | 55 | 51 | 61.7
19 | UAGAGAGGAAGCGAGGAUAUCGUGUGAGGUACAUGAGGAUCACCCAUGUUUUAUGUUGAGAGAGGCGAGAAGGCGCAGGAGAAAA [JR_SS2_Sub087] (puzzle: Same State 2) | – | – | – | 20 | 37.3 | 26.2
20 | GCAACGUGAUUAGGAUAUGCGAAACCCAUGGAAACUACACAUGAGGAUCACCCAUGUCCAUAGCCGCAGAAGGGAUCCGGAGCA [Eternabot solution 6] (Eterna round: R96, puzzle: Same State NG 2) | 32.1 | 90.3 | 147 | – | – | –
21 | UAGAGAGGAAGCGAGGAUAUCGUGUUAGGUACAUGAGGAUCACCCAUGUUGUAGGUAGAGGUAGGCGAGAAGGCGCAGGAGAGGA [JR_SS2_Sub092] (puzzle: Same State 2) | – | – | – | 35.6 | 37.6 | 66.2
22 | GGGCCAACGAGCGAGGAUAUGGCCUCGGACACAUGAGGAUCACCCAUGUCGAAAAGGUCAGGAGGCUAGAAGGCGUAAAAUGCCA [Tiqusoor] (puzzle: Same State 2) | – | – | – | 11.7 | 10.8 | 13.1
23 | GUAAGGCAAGCUUUUUUCUCGUAGUGUAAACAUGAGGAUCACCCAUGUGCUCGCCCUGGACCUUUGGAUCGCAGAAA [Tiesmain] (puzzle: Sensor for hsa-mir-208a) | – | – | – | 36.4 | 22.2 | 46.3
24 | UGAUCGCUUGGAGGAUAUCCAACUAUCCUAGUUGGAGAAGGCCAAGCUACAGAGCUAAGCUUGGAAGUCACUUCGAAUCAACAC [pwkr ssNG1 F9.4] (Eterna round: R96, puzzle: Same State NG 1) | 2.23 | 129 | 155 | – | – | –
25 | CCGAUAAAUGGAGGAUAUGGAGCCUUAUUGGCUCCAGAAGGCUAAUAACAUGAGGAUCACCCAUGUCGGCGGUCUAAUGACCGA [Eli NG1ss - 51] (Eterna round: R96, puzzle: Same State NG 1) | – | 46.4 | – | – | – | –
26 | AGGCUCAGACGAGGAUAUGAUCAUGGCGCUUCGGCGCAUACAUGAGGAUCACCCAUGUAAAGUGAUCAGAAGGUGUCUGAGCCA [SSNG2/7-B1] (Eterna round: R96, puzzle: Same State NG 2) | 13.9 | 11 | 16.1 | – | – | –
27 | ACAUGAGACGGAGGAUAUCUUGUACCUACAUGUGACAUGAGGAUCACCCAUGUGGUAAGUAUGAUAGAGAAGGCCGAGAUAUGU [Equivalance 57 - Jieux - Same State NG 2] (Eterna round: R96, puzzle: Same State NG 2) | 16.1 | 15 | 25.4 | – | – | –
28 | AGUCCAGCCUGAGCUGGACAAAAGCAUGUACAUGAGGAUCACCCAUGUUCAUGUACAAGCUUUUUGCUCGUCUUGCC [salish99_208a_r3_107x] (puzzle: Sensor for hsa-mir-208a) | – | – | – | 634 | 15.9 | 1130
29 | GAGGGCGAAAGCAACAUGAGGAUCACCCAUGUUGUCGAAAGGCAGGAUAUCCGGCGAAAGCAGAAGGAGAAGGGUCGAAAAGAA [AK SSNG3-V2-40] (Eterna round: R96, puzzle: Same State NG 3) | 14.5 | 19.7 | 24.9 | – | – | –
30 | UCUUGGUUUUUGCUCGUUUUUUGUGUUGAACAUGAGGAUCACCCAUGUAUUGUACAAUCCGAUUUAAUAAUGGUCCG [JMF 50] (puzzle: Sensor for hsa-mir-208a) | – | – | – | 42.5 | 48.4 | 46.4
31 | GAGAGACGAUUAGGAUAUCCGGUGAUAAUGAUAGGAGAAGGAAUUGACAUGAGGAUCACCCAUGUAGGAAUAAUCCAGAGAGAG [Parity 25 - Jieux - Same State NG 1] (Eterna round: R96, puzzle: Same State NG 1) | 51.5 | 28.5 | 48.8 | – | – | –
